Laboratory results published in patent publication USRE44389.

Tests used:
[1] = biological target: Fcγ receptors on monocytes (human blood); experiment: FACS on human monocytes, antibody 10 µg/ml
[2] = biological target: Fcγ receptors on granulocytes (human blood); experiment: FACS on human granulocytes, antibody 10 µg/ml
[3] = biological target: Fcγ receptors on monocytes (human blood); experiment: FACS on human monocytes, antibody 10 µg/ml; negative control

| Substance | % monocytes binding antibody [1] | % granulocytes binding antibody [2] | % monocytes binding antibody [3] |
| --- | --- | --- | --- |
| HuMab 002 Fc variant IgG4v1 (S228P; L235E) (antibody) | 14.5% | 1.6% | – |
| Human IgG4 (CLB, the Netherlands), negative control (antibody) | – | – | 9.4% |
